{"source": "paper PMC8499627", "about": "(Antibody Therapeutics, 2021)", "details_in_all_cases": "both partners purified", "key": {"[1]": {"molecular_target": "T1, SEQ13 peptide (HBsAg aa 113-135) (Hepatitis B virus, strain  …, UniProt P03141)", "T1 construct": "source: synthetic peptide, bought: Sangon Biotech", "T1 chain": "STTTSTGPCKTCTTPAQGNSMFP", "assay": "ELISA; indirect ELISA kits (Beijing Wantai) on HBsAg, CR-T3-SEQ13 or SEQ13 peptides; purified antibodies titrated, EC50s"}, "[2]": {"molecular_target": "T2, Recombinant HBsAg protein (hepatitis B surface antigen) (Hepatitis B virus, strain ; …, UniProt P03141)", "T2 construct": "source: bought: Beijing Wantai Biological Pharmacy Enterprise", "assay": "ELISA; indirect ELISA kits (Beijing Wantai) on HBsAg, CR-T3-SEQ13 or SEQ13 peptides; purified antibodies titrated, EC50s"}, "[3]": {"molecular_target": "T2, Recombinant HBsAg protein (hepatitis B …)", "assay": "SPR; Biacore 3000, 10°C; HBsAg immobilised (2 400 RU, sodium acetate pH 4.5); antibody 1.56-100 nM, 50 μL/min, 90 sec association, 600 sec dissociation"}}, "data": [{"binder": "C3-13 (antibody, V domains shown, cynomolgus monkey VH of monkey #3; cynomolgus monkey VL of monkey #3; Monkey-human chimeric antibody, human IgG1 constant regions; source: HEK-293F, transfected, purified (protein A)) VH: QVQLQESGPRLVKSSETLPLTCAVSGASNSSNYWSWIRQPPGKGLEWIGRIYGNSGSTDYNPSLKSRVSISTDTSKNQFSLKLSSVTAADTAVYFCARGSVYTYSWGQGVLVTVSS VL: DIQMSQSPDSLAVSLGERVTINCKSSQSLLYSSNNKNYLAWYQQKPGQAPKLLFYWASTRESGVPNRFSGSGSGTDFTLTIRGLQAEDVAVYYCQQHYTTPLTFGQGTKVEIK", "values": [{"measurement": "binding result", "setting": "[1]", "value": "binds"}, {"measurement": "binding result", "setting": "[2]", "value": "binds"}]}, {"binder": "hu1-23 (antibody, V domains shown, humanized VH: CDRs (IMGT) of C1-23 grafted on the most closely related human germline; humanized VK: CDRs (IMGT) of C1-23 grafted on the most closely related human germline; Human IgG1 CH and CK constant regions; also called humanized 1-23; Humanized antibody hu1-23; source: HEK-293F, transfected, purified (protein A)) VH: QVQLQESGPGLVKPSETLSLTCTVSGGSITSNFWSWIRQPPGKGLEWIGYISGSGTYTDYNPSLKSRVTISVDTSKNQFSLKLSSVTAADTAVYYCARSHDYGSNDYAFDFWGQGTTVTVSS VL: DIQMTQSPSSLSASVGDRVTITCRATQDISSSLNWYQQKPGKAPKLLIYYANRLQSGVPSRFSGSGSGTDFTLTISSLQPEDFATYYCQQYHSLPLTFGGGTKVEIK", "values": [{"measurement": "Kd", "setting": "[3]", "value": 1.06, "unit": "nM"}, {"measurement": "binding result", "setting": "[1]", "value": "binds"}]}, {"binder": "C1-23 (antibody, V domains shown, cynomolgus monkey VH of monkey #1; cynomolgus monkey VL of monkey #1; Monkey-human chimeric antibody, human IgG1 constant regions; parent of hu1-23; source: HEK-293F, transfected, purified (protein A)) VH: QVQLQESGPGLVKPSEILSVTCSVSGGSITSNFWSWIRQPPGKGLEWIGYISGSGTYTDYNPSLRSRVTLSVDTSKNQLSLKLSSVTAADTAVYYCARSHDYGSNDYAFDFWGQGLRVTVSS VL: EIVMTQSPSSLSASVGDRVTITCRATQDISSSLNWYQQKPGKAPQLLIYYANRLESGVPSRFRGSGSGTEFTLTISSLQPEDFTTYYCQQYHSLPLTFGGGTKVEIK", "values": [{"measurement": "binding result", "setting": "[1]", "value": "binds"}, {"measurement": "binding result", "setting": "[2]", "value": "binds"}]}]}
